# B1: 3-ketoacyl-(acyl-carrier-protein) reductase (FabG) from Rickettsia prowazekii strain Madrid E (enzyme)
# chain: MIDLTGKTSLITGASSGIGSAIARLLHKLGSKVIISGSNEEKLKSLGNALKDNYTIEVCNLANKEECSNLISKTSNLDILVCNAGITSDTLAIRMKDQDFDKVIDINLKANFILNREAIKKMIQKRYGRIINISSIVGIAGNPGQANYCASKAGLIGMTKSLSYEVATRGITVNAVAPGFIKSDMTDKLNEKQREAIVQKIPLGTYGIPEDVAYAVAFLASNNASYITGQTLHVNGGMLMV
# notes: also called 3-ketoacyl-(ACP) reductase; 3-oxoacyl-(acyl-carrier-protein) reductase; not shown: His6, N-terminal, kept
# Biological target: the molecule itself
# Assay: crystal structure
protein,measurement,value
B1,stoichiometry N,4

# Source: publication PMC3169412, “Structure of 3-ketoacyl-(acyl-carrier-protein) reductase from Rickettsia prowazekii at 2.25 Å resolution” (Acta Crystallographica Section F: Structural Biology and …, 2011)
